From PMC10906455, “Disruption of CFAP418 interaction with lipids causes widespread abnormal membrane-associated cellular processes in retinal degenerations” (JCI Insight, 2024)

Target: mCherry-RAB28 WT (UniProt Q99KL7 1-221)
Assay: co-IP; HEK293 cells cotransfected with FLAG-CFAP418 and mCherry-RAB28 WT, T26N, Q72L or mCherry; mCherry proteins 'pulled down', FLAG-CFAP418 seen only in the overexposed immunoblot
Conditions: partners not purified

fraction of CFAP418 pulled down: ~0.1%
B1: FLAG-CFAP418 (natural protein)
chain: MAKDLDELLDEVETKFCRLDPLRLDLGERPKGDGGGGSHSGDRNGAQEKETLRSTETFKKEDDLDSLINEIFEEPDFDRKSFQKFKSKSSSNTCVRAPMQGVSKSCSPVYLSGSAIPCGIGTNTSQRACDRLRCVACDFRIVSYNDYMWDKSCDYLFFRNNMPEFHKLKTKLIEKKGARAYACQCSWRTVEELTDLQTDHQLRWVCGKH
notes: CFAP418; source: HEK293, cotransfected, in lysate
